Drawing on the RNAGym collection of RNA variant scans (doi:10.1093/molbev/msab373), this text covers reverse-splicing fitness for 84 variants.

B1: Azoarcus group I ribozyme (parent)
chain: GUGCCUUGCGCCGGGAAACCACGCAAGGGAUGGUGUCAAAUUCGGCGAAACCUAAGCGCCCGCCCGGGCGUAUGGCAACGCCGAGCCAAGCUUCGGCGCCUGCGCCGAUGAAGGUGUAGAGACUAGACGGCACCCACCUAAGGCAAACGCUAUGGUGAAGGCAUAGUCCAGGGAGUGGCGAAAGUCACACAAACCGG

The data set covers variants of B1. In words: reverse-splicing fitness (ratio to wild type); higher = more active; in vitro selection; Mg2+ level not given. A digest of the protocol: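 An in vitro group I ribozyme library with randomized positions was T7-transcribed and gel-purified. In triplicate, 10 pmol RNA in EPPS pH 7.5 was reacted with 50 pmoles of a 30-nt RNA substrate for 1 h at 37 °C across several added MgCl2 levels (1–48 mM), then stopped with EDTA. Products were reverse transcribed from a substrate-complementary primer, PCR-amplified and sequenced (HiSeq 4000). Fitness is a variant's read proportion after selection over that before, normalised to wild type.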
As to C82U A111U A145G, the reverse-splicing fitness is 0.332.
For the variant C82U A111U A145C, the reverse-splicing fitness was 0.295.
In the case of C82U A111U A145G C150U C169G U176A, the reverse-splicing fitness turned out to be 0.0133.
The figure for C82U A111U A145G C150U C169G U176C is 0.0174; for C82U A111U A145G C150U C169G U176G it is 0.00598.
As for C82U A111U A145C C150U C169G U176A, the figure is 0.0199; as for C82U A111U A145C C150U C169G U176G, 0.00575; as for C82U A111U A145C C150U C169G U176C, 0.0104.
As for C82U A111U C150A U176G, the figure is 0.00896.
In the case of C82U A111U C150A U176C, the reverse-splicing fitness was found to be 0.0289.
On to C82U A111U C150A U176A, for which the reverse-splicing fitness worked out at 0.0157.
The figure for C82U A111U A145G C169A U176A is 0.0191; for C82U A111U A145G C169A U176C it is 0.0257; for C82U A111U A145G C169A U176G it is 0.00582.
Turning to C82U A111U A120U C150U C169A U176C, the reverse-splicing fitness was 0.00314.
Regarding C82U A111U A120U C150U C169A U176A, the reverse-splicing fitness came out at 0.0038.
The figure for C82U A111U A120U C150U C169A U176G is 0.00205; for C82U A111U A145C C169U U176C it is 0.0103; for C82U A111U A145C C169U U176G it is 0.00463.
The figure for C82U A111U A145C C169U U176A is 0.0134; for C82U A111U A145U C169A it is 0.00706.
The figure for C82U A111U A145U C169U is 0.0106; for C82U A111U A145U C169G it is 0.00791.
C82U A111U A145C C169U: the reverse-splicing fitness came out at 0.0102.
Take C82U A111U A145C C169A: the reverse-splicing fitness is 0.00671.
The figure for C82U A111U A145C C169G is 0.0091; for C82U A111U A145C C150A U176A it is 0.0116; for C82U A111U A145C C150A U176G it is 0.00625.
For C82U A111U A145C C150A U176C, the reverse-splicing fitness was found to be 0.013.
The figure for C82U A111U A145U C150A C169A is 0.0089; for C82U A111U A145U C150A C169G it is 0.00727; for C82U A111U A145U C150A C169U it is 0.0106.
The figure for C82U A111U A145C C169A U176A is 0.00952.
On to C82U A111U A145C C169A U176G, for which the reverse-splicing fitness stood at 0.00457.
As for C82U A111U A145C C169A U176C, the figure is 0.00614.
The figure for C82U A111U A145G U176G is 0.0229; for C82U A111U A145G U176A it is 0.107.
Regarding C82U A111U A145G U176C, the reverse-splicing fitness came to 0.159.
The figure for C82U A111U A120U C150U C169G U176A is 0.00732; for C82U A111U A120U C150U C169G U176C it is 0.00317; for C82U A111U A120U C150U C169G U176G it is 0.00205.
The figure for C82U A111U A145U C150G C169A U176A is 0.0112; for C82U A111U A145U C150G C169A U176G it is 0.00684; for C82U A111U A145U C150G C169A U176C it is 0.00962.
The figure for C82U A111U A120U A145U C169U U176G is 0.00177.
Consider C82U A111U A120U A145U C169U U176A, for which the reverse-splicing fitness stood at 0.00286.
The figure for C82U A111U A120U A145U C169U U176C is 0.00278; for C82U A111U U176C it is 0.173.
Regarding C82U A111U U176G, the reverse-splicing fitness turned out to be 0.0233.
Turning to C82U A111U U176A, the reverse-splicing fitness came out at 0.107.
As for C82U A111U C150U C169G U176C, the figure is 0.0162.
As for C82U A111U C150U C169G U176A, the figure is 0.013.
The figure for C82U A111U C150U C169G U176G is 0.00639; for C82U A111U A120U C150G C169U U176A it is 0.00294; for C82U A111U A120U C150G C169U U176C it is 0.00377.
Consider C82U A111U A120U C150G C169U U176G, for which the reverse-splicing fitness is 0.00264.
For C82U A111U C150A C169A, the reverse-splicing fitness came out at 0.00982.
Turning to C82U A111U C150A C169G, the reverse-splicing fitness came out at 0.00941.
As for C82U A111U C150A C169U, the figure is 0.0133; as for C82U A111U A145G C150G C169U U176C, 0.0115; as for C82U A111U A145G C150G C169U U176G, 0.00654.
The figure for C82U A111U A145G C150G C169U U176A is 0.0114; for C82U A111U A145C C150A C169G it is 0.00741.
The figure for C82U A111U A145C C150A C169U is 0.00873.
C82U A111U A145C C150A C169A: the reverse-splicing fitness came out at 0.00809.
The figure for C82U A111U C169G U176A is 0.0162.
Consider C82U A111U C169G U176C, for which the reverse-splicing fitness amounted to 0.0183.
On to C82U A111U C169G U176G, for which the reverse-splicing fitness is 0.0052.
As for C82U A111U A120U C169A U176A, the figure is 0.00285; as for C82U A111U A120U C169A U176C, 0.00317; as for C82U A111U A120U C169A U176G, 0.00193.
The figure for C82U A111U A120U C150G C169A U176G is 0.00272; for C82U A111U A120U C150G C169A U176C it is 0.00404.
The figure for C82U A111U A120U C150G C169A U176A is 0.004; for C82U A111U A120U C150A U176A it is 0.00551; for C82U A111U A120U C150A U176C it is 0.00596.
For C82U A111U A120U C150A U176G, the reverse-splicing fitness stood at 0.00299.
The figure for C82U A111U A145C C150A is 0.0151; for C82U A111U A145C C150U it is 0.0602; for C82U A111U A145C C150G it is 0.0299.
In the case of C82U A111U A145U C169A U176C, the reverse-splicing fitness came to 0.00904.
As for C82U A111U A145U C169A U176A, the figure is 0.00935; as for C82U A111U A145U C169A U176G, 0.00592.
The figure for C82U A111U A145U C150U C169U is 0.0104.
